B1: MYBL2 (parent)
chain: FSPSQFLNFWNKQDTLELESPSLT

Variants of: B1
Test: protein stability index of a GFP-peptide fusion (GPS, HEK-293T) (PSI 1-6); higher = more stable
Conditions: c terminus: a fixed tail appended
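Also: lentivirally expressed fusions sorted by FACS into six bins by GFP to DsRed ratio, PSI derived from sequencing read proportions per bin multiplied by bin number.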

| Variant | protein stability index |
| --- | --- |
| FSPSQFLNFANKQDTLELESPSLT [W10A] | 2.48 |
| FSPSQFLNFGNKQDTLELESPSLT [W10G] | 2.93 |
| FSPSQFLNFHNKQDTLELESPSLT [W10H] | 2.77 |
| FSPSQFLNFKNKQDTLELESPSLT [W10K] | 2.8 |
| FSPSQFLNFINKQDTLELESPSLT [W10I] | 2.28 |
| FSPSQFLNFCNKQDTLELESPSLT [W10C] | 2.5 |
| FSPSQFLNFQNKQDTLELESPSLT [W10Q] | 3.5 |
| FSPSQFLNFPNKQDTLELESPSLT [W10P] | 3.45 |
| FSPSQFLNFRNKQDTLELESPSLT [W10R] | 2.62 |
| FSPSQFLNFDNKQDTLELESPSLT [W10D] | 3.87 |
| FSPSQFLNFLNKQDTLELESPSLT [W10L] | 2.06 |
| FSPSQFLNFMNKQDTLELESPSLT [W10M] | 2.17 |
| FSPSQFLNFFNKQDTLELESPSLT [W10F] | 2.18 |
| FSPSQFLNFENKQDTLELESPSLT [W10E] | 3.51 |
| FSPSQFLNFNNKQDTLELESPSLT [W10N] | 3.38 |
| FSPSQQLNFWNKQDTLELESPSLT [F6Q] | 3.08 |
| FSPSQELNFWNKQDTLELESPSLT [F6E] | 4 |
| FSPSQPLNFWNKQDTLELESPSLT [F6P] | 3 |
| FSPSQTLNFWNKQDTLELESPSLT [F6T] | 1.5 |
| FSPSQLLNFWNKQDTLELESPSLT [F6L] | 4.19 |
| FSPSQHLNFWNKQDTLELESPSLT [F6H] | 2.6 |
| FSPSQCLNFWNKQDTLELESPSLT [F6C] | 1.61 |
| FSPSQWLNFWNKQDTLELESPSLT [F6W] | 2.7 |
| FSPSQDLNFWNKQDTLELESPSLT [F6D] | 2.59 |

| Variant | protein stability index |
| --- | --- |
| FSPSQSLNFWNKQDTLELESPSLT [F6S] | 2.31 |
| FSPSQVLNFWNKQDTLELESPSLT [F6V] | 2.39 |
| FSPSQRLNFWNKQDTLELESPSLT [F6R] | 3.66 |
| FSPSQKLNFWNKQDTLELESPSLT [F6K] | 2.86 |
| FSPSQALNFWNKQDTLELESPSLT [F6A] | 2.02 |
| FSPSQNLNFWNKQDTLELESPSLT [F6N] | 2.21 |
| FSPSNFLNFWNKQDTLELESPSLT [Q5N] | 2.27 |
| FSPSGFLNFWNKQDTLELESPSLT [Q5G] | 3.07 |
| FSPSRFLNFWNKQDTLELESPSLT [Q5R] | 2.6 |
| FSPSWFLNFWNKQDTLELESPSLT [Q5W] | 2.86 |
| FSPSKFLNFWNKQDTLELESPSLT [Q5K] | 2.44 |
| FSPSSFLNFWNKQDTLELESPSLT [Q5S] | 2.83 |
| FSPSFFLNFWNKQDTLELESPSLT [Q5F] | 2.31 |
| FSPSMFLNFWNKQDTLELESPSLT [Q5M] | 2.95 |
| FSPSDFLNFWNKQDTLELESPSLT [Q5D] | 2.75 |
| FSPSTFLNFWNKQDTLELESPSLT [Q5T] | 3.6 |
| FSPSPFLNFWNKQDTLELESPSLT [Q5P] | 3.49 |
| FSPSYFLNFWNKQDTLELESPSLT [Q5Y] | 2.29 |
| FSPSCFLNFWNKQDTLELESPSLT [Q5C] | 3.02 |
| FSPSHFLNFWNKQDTLELESPSLT [Q5H] | 2.79 |
| FSPSQFLNSWNKQDTLELESPSLT [F9S] | 1.83 |
| FSPSQFLNAWNKQDTLELESPSLT [F9A] | 1.87 |
| FSPSQFLNVWNKQDTLELESPSLT [F9V] | 3.09 |
| FSPSQFLNIWNKQDTLELESPSLT [F9I] | 3.65 |

| Variant | protein stability index |
| --- | --- |
| FSPSQFLNQWNKQDTLELESPSLT [F9Q] | 2.15 |
| FSPSQFLNTWNKQDTLELESPSLT [F9T] | 1.96 |
| FSPSQFLNRWNKQDTLELESPSLT [F9R] | 2.13 |
| FSPSQFLNLWNKQDTLELESPSLT [F9L] | 2.98 |
| FSPSQFLNDWNKQDTLELESPSLT [F9D] | 2.98 |
| FSPSQFLNWWNKQDTLELESPSLT [F9W] | 2.84 |
| FSPSQFLNEWNKQDTLELESPSLT [F9E] | 2.43 |
| FSPSQFLNNWNKQDTLELESPSLT [F9N] | 2.29 |
| FSPSQFLNKWNKQDTLELESPSLT [F9K] | 2.44 |
| FSPSQFLNHWNKQDTLELESPSLT [F9H] | 2.43 |
| FSPSQFLNMWNKQDTLELESPSLT [F9M] | 1.63 |
| FSPSQFLNYWNKQDTLELESPSLT [F9Y] | 1.74 |
| FSPSQFLNCWNKQDTLELESPSLT [F9C] | 2.17 |
| FSPSQFLNGWNKQDTLELESPSLT [F9G] | 1.6 |
| FSPSQFLNPWNKQDTLELESPSLT [F9P] | 2.48 |
| FSPSQFLQFWNKQDTLELESPSLT [N8Q] | 2.17 |
| FSPSQFLDFWNKQDTLELESPSLT [N8D] | 2.08 |
| FSPSQFLAFWNKQDTLELESPSLT [N8A] | 3.07 |
| FSPSQFLSFWNKQDTLELESPSLT [N8S] | 3.58 |
| FSPSQFLMFWNKQDTLELESPSLT [N8M] | 3.6 |
| FSPSQFLKFWNKQDTLELESPSLT [N8K] | 2.74 |
| FSPSQFLRFWNKQDTLELESPSLT [N8R] | 2.93 |
| FSPSQFLFFWNKQDTLELESPSLT [N8F] | 4.01 |
| FSPSQFLWFWNKQDTLELESPSLT [N8W] | 2.9 |

| Variant | protein stability index |
| --- | --- |
| FSPSQFLTFWNKQDTLELESPSLT [N8T] | 3.92 |
| FSPSQFLLFWNKQDTLELESPSLT [N8L] | 3.22 |
| FSPSQFLPFWNKQDTLELESPSLT [N8P] | 2.91 |
| FSPSQFLVFWNKQDTLELESPSLT [N8V] | 3.44 |
| FSPSQFLIFWNKQDTLELESPSLT [N8I] | 4.12 |
| FSPSQFLYFWNKQDTLELESPSLT [N8Y] | 2.06 |
| FSPSQFGNFWNKQDTLELESPSLT [L7G] | 2.59 |
| FSPSQFVNFWNKQDTLELESPSLT [L7V] | 3.57 |
| FSPSQFKNFWNKQDTLELESPSLT [L7K] | 2.97 |
| FSPSQFWNFWNKQDTLELESPSLT [L7W] | 2.38 |
| FSPSQFMNFWNKQDTLELESPSLT [L7M] | 3.04 |
| FSPSQFRNFWNKQDTLELESPSLT [L7R] | 2.38 |
| FSPSQFQNFWNKQDTLELESPSLT [L7Q] | 2.92 |
| FSPSQFINFWNKQDTLELESPSLT [L7I] | 3.39 |
| FSPSQFNNFWNKQDTLELESPSLT [L7N] | 3.1 |
| FSPSQFANFWNKQDTLELESPSLT [L7A] | 3.29 |
| FSPSQFYNFWNKQDTLELESPSLT [L7Y] | 2.76 |
| FSPSQFTNFWNKQDTLELESPSLT [L7T] | 3.42 |
| FSPSQFCNFWNKQDTLELESPSLT [L7C] | 3.24 |
| FSPSQFHNFWNKQDTLELESPSLT [L7H] | 3.34 |
| FSPSQFPNFWNKQDTLELESPSLT [L7P] | 2.25 |
| FSPSQFFNFWNKQDTLELESPSLT [L7F] | 2.6 |

Source: the supplement of paper PMC10567573
